This note sets out measurements from IntAct's records for PubMed 31515488.

Sequences and labels used below:
B1: Amphiphysin (Homo sapiens), P49418 (parent)
chain: MADIKTGIFAKNVQKRLNRAQEKVLQKLGKADETKDEQFEEYVQNFKRQEAEGTRLQRELRGYLAAIKGMQEASMKLTESLHEVYEPDWYGREDVKMVGEKCDVLWEDFHQKLVDGSLLTLDTYLGQFPDIKNRIAKRSRKLVDYDSARHHLEALQSSKRKDESRISKAEEEFQKAQKVFEEFNVDLQEELPSLWSRRVGFYVNTFKNVSSLEAKFHKEIAVLCHKLYEVMTKLGDQHADKAFTIQGAPSDSGPLRIAKTPSPPEEPSPLPSPTASPNHTLAPASPAPARPRSPSQTRKGPPVPPLPKVTPTKELQQENIISFFEDNFVPEISVTTPSQNEVPEVKKEETLLDLDFDPFKPEVTPAGSAGVTHSPMSQTLPWDLWTTSTDLVQPASGGSFNGFTQPQDTSLFTMQTDQSMICNLAESEQAPPTEPKAEEPLAAVTPAVGLDLGMDTRAEEPVEEAVIIPGADADAAVGTLVSAAEGAPGEEAEAEKATVPAGEGVSLEEAKIGTETTEGAESAQPEAEELEATVPQEKVIPSVVIEPASNHEEEGENEITIGAEPKETTEDAAPPGPTSETPELATEQKPIQDPQPTPSAPAMGAADQLASAREASQELPPGFLYKVETLHDFEAANSDELTLQRGDVVLVVPSDSEADQDAGWLVGVKESDWLQYRDLATYKGLFPENFTRRLD
partner: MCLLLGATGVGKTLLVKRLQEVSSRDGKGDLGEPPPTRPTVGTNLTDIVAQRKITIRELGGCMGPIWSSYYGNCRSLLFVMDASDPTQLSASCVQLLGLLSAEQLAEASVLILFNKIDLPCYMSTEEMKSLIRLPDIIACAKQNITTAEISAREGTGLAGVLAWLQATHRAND
B2: Protein FAM9B (Homo sapiens), Q8IZU0 (parent)
chain: MAAWGKKHAGKDPVRDECEERNRFTETREEDVTDEHGEREPFAETDEHTGANTKKPEDTAEDLTAKRKRMKMDKTCSKTKNKSKHALRKKQLKRQKRDYIHSLKLLNVLEEYITDEQKEEEEEEGEEEELIRIFQEQQKKWQQYRSVRRERLKEMKLLRDQFVKALEDFEDLCDRVFSDEDSELDN
partner: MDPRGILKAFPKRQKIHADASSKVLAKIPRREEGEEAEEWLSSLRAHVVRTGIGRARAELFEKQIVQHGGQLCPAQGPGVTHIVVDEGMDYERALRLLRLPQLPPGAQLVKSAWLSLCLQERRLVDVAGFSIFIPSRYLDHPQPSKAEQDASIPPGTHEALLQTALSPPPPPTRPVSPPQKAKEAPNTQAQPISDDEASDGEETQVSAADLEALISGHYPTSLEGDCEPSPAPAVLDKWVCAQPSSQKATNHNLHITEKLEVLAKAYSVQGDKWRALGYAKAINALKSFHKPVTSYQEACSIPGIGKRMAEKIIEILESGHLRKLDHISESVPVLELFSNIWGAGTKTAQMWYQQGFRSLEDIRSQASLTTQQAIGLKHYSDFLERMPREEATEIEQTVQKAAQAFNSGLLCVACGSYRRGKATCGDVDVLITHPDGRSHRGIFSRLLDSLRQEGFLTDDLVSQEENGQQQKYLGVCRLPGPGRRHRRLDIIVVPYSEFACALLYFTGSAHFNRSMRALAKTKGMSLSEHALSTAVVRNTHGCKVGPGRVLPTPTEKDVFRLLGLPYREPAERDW
B3: Ligand of Numb protein X 2 (Homo sapiens), Q8N448 (parent)
chain: MGTTSDEMVSVEQTSSSSLNPLCFECGQQHWTRENHLYNYQNEVDDDLVCHICLQPLLQPLDTPCGHTFCYKCLRNFLQEKDFCPLDRKRLHFKLCKKSSILVHKLLDKLLVLCPFSSVCKDVMQRCDLEAHLKNRCPGASHRRVALERRKTSRTQAEIENENGPTLLDPAGTLSPEADCLGTGAVPVERHLTSASLSTWSEEPGLDNPAFEESAGADTTQQPLSLPEGEITTIEIHRSNPYIQLGISIVGGNETPLINIVIQEVYRDGVIARDGRLLAGDQILQVNNYNISNVSHNYARAVLSQPCNTLHLTVLRERRFGNRAHNHSDSNSPREEIFQVALHKRDSGEQLGIKLVRRTDEPGVFILDLLEGGLAAQDGRLSSNDRVLAINGHDLKYGTPELAAQIIQASGERVNLTIARPGKPQPGNTIREAGNHSSSSQHHTPPPYYSRPSSHKDLTQCVTCQEKHITVKKEPHESLGMTVAGGRGSKSGELPIFVTSVPPHGCLARDGRIKRGDVLLNINGIDLTNLSHSEAVAMLKASAASPAVALKALEVQIVEEATQNAEEQPSTFSENEYDASWSPSWVMWLGLPSTLHSCHDIVLRRSYLGSWGFSIVGGYEENHTNQPFFIKTIVLGTPAYYDGRLKCGDMIVAVNGLSTVGMSHSALVPMLKEQRNKVTLTVICWPGSLV
partner: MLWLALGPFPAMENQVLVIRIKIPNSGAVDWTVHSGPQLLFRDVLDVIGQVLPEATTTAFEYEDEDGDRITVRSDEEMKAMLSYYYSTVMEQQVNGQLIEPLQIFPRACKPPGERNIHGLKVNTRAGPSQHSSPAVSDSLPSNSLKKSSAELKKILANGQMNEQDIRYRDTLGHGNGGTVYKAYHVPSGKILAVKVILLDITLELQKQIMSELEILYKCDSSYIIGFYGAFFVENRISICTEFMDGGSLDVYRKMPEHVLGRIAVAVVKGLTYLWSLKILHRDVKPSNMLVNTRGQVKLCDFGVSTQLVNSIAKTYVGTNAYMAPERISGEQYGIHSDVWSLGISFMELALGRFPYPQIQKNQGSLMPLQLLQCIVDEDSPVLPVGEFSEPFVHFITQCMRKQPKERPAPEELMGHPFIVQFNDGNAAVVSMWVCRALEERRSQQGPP
B4: Probable RNA-binding protein EIF1AD (Homo sapiens), Q8N9N8 (parent)
chain: MSQATKRKHVVKEVLGEHIVPSDQQQIVRVLRTPGNNLHEVETAQGQRFLVSMPSKYRKNIWIKRGDFLIVDPIEEGEKVKAEISFVLCKDHVRSLQKEGFWPEAFSEVAEKHNNRNRQTQPELPAEPQLSGEESSSEDDSDLFVNTNRRQYHESEEESEEEEAA
partner: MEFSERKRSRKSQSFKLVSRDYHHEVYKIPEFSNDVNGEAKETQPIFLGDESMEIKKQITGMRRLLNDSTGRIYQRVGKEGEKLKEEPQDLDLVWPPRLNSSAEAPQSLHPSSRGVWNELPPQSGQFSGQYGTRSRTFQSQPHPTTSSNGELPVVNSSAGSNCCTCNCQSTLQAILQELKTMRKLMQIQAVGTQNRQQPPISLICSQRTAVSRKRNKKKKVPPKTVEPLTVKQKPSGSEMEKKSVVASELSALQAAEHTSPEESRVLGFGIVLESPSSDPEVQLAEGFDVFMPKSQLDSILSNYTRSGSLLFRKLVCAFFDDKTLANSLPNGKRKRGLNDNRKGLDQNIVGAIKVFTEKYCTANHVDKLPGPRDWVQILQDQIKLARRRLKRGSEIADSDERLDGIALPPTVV
B5: KAT8 regulatory NSL complex subunit 1 (Homo sapiens), Q7Z3B3 (parent)
chain: MAAMAPALTDAAAEAHHIRFKLAPPSSTLSPGSAENNGNANILIAANGTKRKAIAAEDPSLDFRNNPTKEDLGKLQPLVASYLCSDVTSVPSKESLKLQGVFSKQTVLKSHPLLSQSYELRAELLGRQPVLEFSLENLRTMNTSGQTALPQAPVNGLAKKLTKSSTHSDHDNSTSLNGGKRALTSSALHGGEMGGSESGDLKGGMTNCTLPHRSLDVEHTTLYSNNSTANKSSVNSMEQPALQGSSRLSPGTDSSSNLGGVKLEGKKSPLSSILFSALDSDTRITALLRRQADIESRARRLQKRLQVVQAKQVERHIQHQLGGFLEKTLSKLPNLESLRPRSQLMLTRKAEAALRKAASETTTSEGLSNFLKSNSISEELERFTASGIANLRCSEQAFDSDVTDSSSGGESDIEEEELTRADPEQRHVPLRRRSEWKWAADRAAIVSRWNWLQAHVSDLEYRIRQQTDIYKQIRANKGLIVLGEVPPPEHTTDLFLPLSSEVKTDHGTDKLIESVSQPLENHGAPIIGHISESLSTKSCGALRPVNGVINTLQPVLADHIPGDSSDAEEQLHKKQRLNLVSSSSDGTCVAARTRPVLSCKKRRLVRPNSIVPLSKKVHRNSTIRPGCDVNPSCALCGSGSINTMPPEIHYEAPLLERLSQLDSCVHPVLAFPDDVPTSLHFQSMLKSQWQNKPFDKIKPPKKLSLKHRAPMPGSLPDSARKDRHKLVSSFLTTAKLSHHQTRPDRTHRQHLDDVGAVPMVERVTAPKAERLLNPPPPVHDPNHSKMRLRDHSSERSEVLKHHTDMSSSSYLAATHHPPHSPLVRQLSTSSDSPAPASSSSQVTASTSQQPVRRRRGESSFDINNIVIPMSVAATTRVEKLQYKEILTPSWREVDLQSLKGSPDEENEEIEDLSDAAFAALHAKCEEMERARWLWTTSVPPQRRGSRSYRSSDGRTTPQLGSANPSTPQPASPDVSSSHSLSEYSHGQSPRSPISPELHSAPLTPVARDTPRHLASEDTRCSTPELGLDEQSVQPWERRTFPLAHSPQAECEDQLDAQERAARCTRRTSGSKTGRETEAAPTSPPIVPLKSRHLVAAATAQRPTHR
B6: Histone-lysine N-methyltransferase SMYD1 (Homo sapiens), Q8NB12 (parent)
chain: MTIGRMENVEVFTAEGKGRGLKATKEFWAADIIFAERAYSAVVFDSLVNFVCHTCFKRQEKLHRCGQCKFAHYCDRTCQKDAWLNHKNECSAIKRYGKVPNENIRLAARIMWRVEREGTGLTEGCLVSVDDLQNHVEHFGEEEQKDLRVDVDTFLQYWPPQSQQFSMQYISHIFGVINCNGFTLSDQRGLQAVGVGIFPNLGLVNHDCWPNCTVIFNNGNHEAVKSMFHTQMRIELRALGKISEGEELTVSYIDFLNVSEERKRQLKKQYYFDCTCEHCQKKLKDDLFLGVKDNPKPSQEVVKEMIQFSKDTLEKIDKARSEGLYHEVVKLCRECLEKQEPVFADTNIYMLRMLSIVSEVLSYLQAFEEASFYARRMVDGYMKLYHPNNAQLGMAVMRAGLTNWHAGNIEVGHGMICKAYAILLVTHGPSHPITKDLEAMRVQTEMELRMFRQNEFMYYKMREAALNNQPMQVMAEPSNEPSPALFHKKQ

In the first test the parent is B1. The conditions noted are these: with arl16_human ARL16, Q0P5N6.
As for M376I, the “effect of a mutation on the interaction” value was “with no effect”.

In a further test the parent is B2. The settings on record: with dpoll_human POLL.
Take R23H: the “effect of a mutation on the interaction” value was “with no effect”.

The variants in the next test derive from B3. The settings on record: with mp2k5_human MAP2K5, Q13163.
S198P: the “effect of a mutation on the interaction” value is recorded as “with no effect”.

A further test covers variants of B4. The conditions noted are these: with bend7_human BEND7, Q8N7W2.
Turning to R48C, the “effect of a mutation on the interaction” value was “with no effect”.

The next test covers variants of B5. The settings on record: with cdr2_human CDR2, Q01850.
cdr2_human CDR2, Q01850, sequence (Q01850 whole entry): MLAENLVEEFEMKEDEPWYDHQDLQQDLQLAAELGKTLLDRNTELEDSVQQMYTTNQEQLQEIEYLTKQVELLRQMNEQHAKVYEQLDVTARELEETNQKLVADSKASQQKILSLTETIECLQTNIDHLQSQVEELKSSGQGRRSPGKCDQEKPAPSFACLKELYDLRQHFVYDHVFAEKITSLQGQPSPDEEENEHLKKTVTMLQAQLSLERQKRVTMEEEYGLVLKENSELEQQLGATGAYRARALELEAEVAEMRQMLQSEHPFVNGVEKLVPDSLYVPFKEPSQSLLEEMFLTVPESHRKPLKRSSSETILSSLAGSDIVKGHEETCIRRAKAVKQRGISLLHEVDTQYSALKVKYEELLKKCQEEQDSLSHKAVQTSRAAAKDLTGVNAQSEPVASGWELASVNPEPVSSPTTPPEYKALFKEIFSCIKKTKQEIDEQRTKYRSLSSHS
For the variant N225D, the “effect of a mutation on the interaction” value is on record as “with no effect”.

Turning to K104T, the “effect of a mutation on the interaction” value is recorded as “with no effect”.

In the next test the parent is B5. The conditions noted are these: with traf2_human TRAF2, Q12933.
traf2_human TRAF2, Q12933, sequence (Q12933 whole entry): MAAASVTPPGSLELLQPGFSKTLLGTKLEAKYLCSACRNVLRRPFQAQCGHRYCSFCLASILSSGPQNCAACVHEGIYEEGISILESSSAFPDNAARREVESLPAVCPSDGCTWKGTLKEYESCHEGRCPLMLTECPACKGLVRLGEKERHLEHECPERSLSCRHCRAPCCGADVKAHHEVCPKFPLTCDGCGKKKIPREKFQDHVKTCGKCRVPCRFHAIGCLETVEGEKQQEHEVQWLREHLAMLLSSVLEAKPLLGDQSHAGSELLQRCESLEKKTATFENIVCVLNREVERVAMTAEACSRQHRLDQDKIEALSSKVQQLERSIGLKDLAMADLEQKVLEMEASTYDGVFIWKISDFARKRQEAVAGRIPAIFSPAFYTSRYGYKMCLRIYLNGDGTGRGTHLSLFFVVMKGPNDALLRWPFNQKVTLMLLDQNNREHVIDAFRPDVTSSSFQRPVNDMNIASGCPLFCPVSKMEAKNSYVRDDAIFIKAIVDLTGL
With N225D, the “effect of a mutation on the interaction” value is “with no effect”. For the variant K104T, the “effect of a mutation on the interaction” value is recorded as “with no effect”.

In the next test the parent is B5. The conditions noted are these: with KRT15, P19012.
KRT15, P19012, sequence (P19012 whole entry): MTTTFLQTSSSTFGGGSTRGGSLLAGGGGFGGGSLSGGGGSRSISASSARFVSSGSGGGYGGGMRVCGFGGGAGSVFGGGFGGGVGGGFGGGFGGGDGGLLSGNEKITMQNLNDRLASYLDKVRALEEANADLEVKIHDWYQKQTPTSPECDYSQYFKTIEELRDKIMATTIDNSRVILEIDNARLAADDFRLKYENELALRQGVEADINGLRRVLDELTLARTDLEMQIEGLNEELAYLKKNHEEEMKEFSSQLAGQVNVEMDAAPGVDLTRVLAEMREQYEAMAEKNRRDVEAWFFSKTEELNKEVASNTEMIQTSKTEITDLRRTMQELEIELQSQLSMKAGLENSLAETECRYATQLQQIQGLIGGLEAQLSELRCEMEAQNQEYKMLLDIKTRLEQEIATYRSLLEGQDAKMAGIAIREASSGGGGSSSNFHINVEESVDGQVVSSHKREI
With N225D, the “effect of a mutation on the interaction” value was “with no effect”.

For K104T, the “effect of a mutation on the interaction” value is on record as “with no effect”.

A further test covers variants of B6. The conditions noted are these: with bhe40_human BHLHE40, O14503.
bhe40_human BHLHE40, O14503, sequence (O14503 whole entry): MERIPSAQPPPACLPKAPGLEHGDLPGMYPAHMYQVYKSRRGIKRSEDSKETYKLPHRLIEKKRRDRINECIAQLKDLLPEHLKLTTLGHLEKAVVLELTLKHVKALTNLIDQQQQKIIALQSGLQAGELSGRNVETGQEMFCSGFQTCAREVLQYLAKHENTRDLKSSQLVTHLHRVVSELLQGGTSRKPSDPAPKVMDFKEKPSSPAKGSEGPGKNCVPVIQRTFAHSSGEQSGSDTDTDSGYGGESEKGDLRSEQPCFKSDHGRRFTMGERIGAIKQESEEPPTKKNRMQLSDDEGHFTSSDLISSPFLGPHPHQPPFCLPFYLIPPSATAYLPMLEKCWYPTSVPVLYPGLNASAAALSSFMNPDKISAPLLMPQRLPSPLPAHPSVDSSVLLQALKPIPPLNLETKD
With R441W, the “effect of a mutation on the interaction” value is “with no effect”.
